Values quoted from earlier work as cited in article PMC11724285.

Test system: NF-κB (subunit not stated)

GAUACUUGAAACUGUAAGGUUGGCGUAUA [NF-κB RNA aptamer (29 nt)]
Kd: 5 nM
